Tested on: Bacillus subtilis
Assay: cleaved RNA product abundance (RNA/gDNA barcode ratio) relative to median wild-type variant (ratio to wild type); higher = more accumulation of the downstream cleavage product
Conditions: cleavage site: cggR-gapA (positions -7 to +36 mutated)
Summary of the method: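 Oligos with a 9% error rate were used to build barcoded, mutagenized RNase Y cleavage-site windows within truncated aprE or tetM reporter mRNAs, which were integrated into the B. subtilis chromosome. Cultures were grown in LB at 37°C between OD600 0.0003 and 0.3. Cleaved RNA was gel-selected, reverse transcribed and barcode-sequenced, as were genomic DNA barcodes, and UMIs were collapsed. Cleaved product abundance is the scaled RNA:gDNA barcode ratio, with the median construct carrying the unmutated site as reference.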

[1] = experiment (reporter, strain, medium): exp 4a: truncated aprE reporter, strain BJT201 with 2% xylose (RNase J1 expressed)
[2] = experiment (reporter, strain, medium): exp 2b: truncated aprE reporter, strain BJT200
[3] = experiment (reporter, strain, medium): exp 6: tetM reporter, strain 168

| Sequence | cleaved RNA product abundance [1] | cleaved RNA product abundance [2] | cleaved RNA product abundance [3] |
| --- | --- | --- | --- |
| ACAGACGAAGGAGCCGCAAAGAAGTTATTAAGGGACGATTAATCCCTCAATATAAATATCTCTCACTTATTTAAA | 0.349 |  |  |
| ACAGACGAAGGAGCCGCAAAGAAGTTATTAAGGGACGTATAATCCCTCAATATAAATATCTCTCACTTATTTAAA | 0.705 |  |  |
| ACAGACGAAGGAGCCGCAAAGAAGTTATTAAGGGACTAATAATCCCTCAATATAAATATCTCTCACTTATTTAAA | 1.01 | 1.03 |  |
| ACAGACGAAGGAGCCGCAAAGAAGTTATTAAGGGAGAAATAATCCCTCAATATAAATATCTCTCACTTATTTAAA | 0.795 |  |  |
| ACAGACGAAGGAGCCGCAAAGAAGTTATTAAGGGAGAATAATCCCTCAATATAAATATCTCTCACTTATTTAAAG | 0.471 |  |  |
| ACAGACGAAGGAGCCGCAAAGAAGTTATTAAGGGAGCAATAATCCCTCAATATAAATATCTCTCACTTATTTAAA | 0.631 |  |  |
| ACAGACGAAGGAGCCGCAAAGAAGTTATTAAGGGAGGAATAAACCCTCAATATAAATATCTCTCACTTATTTAAA | 0.382 |  |  |
| ACAGACGAAGGAGCCGCAAAGAAGTTATTAAGGGAGGAATAACCCCTCAATATAAATATCTCTCACTTATTTAAA | 0.213 |  |  |
| ACAGACGAAGGAGCCGCAAAGAAGTTATTAAGGGAGGAATAATCCATCAATATAAATATCTCTCACTTATTTAAA | 0.209 |  |  |
| ACAGACGAAGGAGCCGCAAAGAAGTTATTAAGGGAGGAATAATCCCTAAATATAAATATCTCTCACTTATTTAAA | 0.324 | 0.404 |  |
| ACAGACGAAGGAGCCGCAAAGAAGTTATTAAGGGAGGAATAATCCCTCAAAATAAATATCTCTCACTTATTTAAA | 0.284 |  |  |
| ACAGACGAAGGAGCCGCAAAGAAGTTATTAAGGGAGGAATAATCCCTCAAGATAAATATCTCTCACTTATTTAAA | 0.152 |  |  |
| ACAGACGAAGGAGCCGCAAAGAAGTTATTAAGGGAGGAATAATCCCTCAATATAAATATCTCTCACTTATTTAAA | 0.603 | 0.499 | 0.591 |
| ACAGACGAAGGAGCCGCAAAGAAGTTATTAAGGGAGGAATAATCCCTGAATATAAATATCTCTCACTTATTTAAA | 0.635 |  |  |
| ACAGACGAAGGAGCCGCAAAGAAGTTATTAAGGGAGGAATAATCCTTCAATATAAATATCTCTCACTTATTTAAA | 0.283 |  |  |
| ACAGACGAAGGAGCCGCAAAGAAGTTATTAAGGGAGGAATAATCTCTCAATATAAATATCTCTCACTTATTTAAA | 0.198 |  |  |
| ACAGACGAAGGAGCCGCAAAGAAGTTATTAAGGGAGGAATAATTCCTCAATATAAATATCTCTCACTTATTTAAA | 0.0856 |  |  |
| ACAGACGAAGGAGCCGCAAAGAAGTTATTAAGGGATAAAAAATCCATCAATATAAATATCTCTCACTTATTTAAA |  | 0.123 |  |
| ACAGACGAAGGAGCCGCAAAGAAGTTATTAAGGGATAAAAAATCCCTCAATATAAATATCTCTCACTTATTTAAA | 0.625 |  |  |
| ACAGACGAAGGAGCCGCAAAGAAGTTATTAAGGGATAAACAATCCCTCAATATAAATATCTCTCACTTATTTAAA | 0.798 | 0.787 |  |

| Sequence | cleaved RNA product abundance [1] | cleaved RNA product abundance [2] | cleaved RNA product abundance [3] |
| --- | --- | --- | --- |
| ACAGACGAAGGAGCCGCAAAGAAGTTATTAAGGGATAAAGAATCCCTCAATATAAATATCTCTCACTTATTTAAA | 0.629 |  |  |
| ACAGACGAAGGAGCCGCAAAGAAGTTATTAAGGGATAAATAAACCCTCAATATAAATATCTCTCACTTATTTAAA | 0.445 |  |  |
| ACAGACGAAGGAGCCGCAAAGAAGTTATTAAGGGATAAATAACCCCTCAATATAAATATCTCTCACTTATTTAAA | 0.499 | 0.423 |  |
| ACAGACGAAGGAGCCGCAAAGAAGTTATTAAGGGATAAATAAGCCCTCAATATAAATATCTCTCACTTATTTAAA | 0.821 |  |  |
| ACAGACGAAGGAGCCGCAAAGAAGTTATTAAGGGATAAATAATACCTCAATATAAATATCTCTCACTTATTTAAA | 0.0789 | 0.117 |  |
| ACAGACGAAGGAGCCGCAAAGAAGTTATTAAGGGATAAATAATCACTCAATATAAATATCTCTCACTTATTTAAA | 0.104 | 0.0853 |  |
| ACAGACGAAGGAGCCGCAAAGAAGTTATTAAGGGATAAATAATCCATCAATATAAATATCTCTCACTTATTTAAA | 0.195 |  |  |
| ACAGACGAAGGAGCCGCAAAGAAGTTATTAAGGGATAAATAATCCCACAATATAAATATCTCTCACTTATTTAAA | 0.356 | 0.253 |  |
| ACAGACGAAGGAGCCGCAAAGAAGTTATTAAGGGATAAATAATCCCCCAATATAAATATCTCTCACTTATTTAAA | 0.22 |  |  |
| ACAGACGAAGGAGCCGCAAAGAAGTTATTAAGGGATAAATAATCCCTAAATATAAATATCTCTCACTTATTTAAA | 0.734 | 0.597 |  |
| ACAGACGAAGGAGCCGCAAAGAAGTTATTAAGGGATAAATAATCCCTCAAAATAAATATCTCTCACTTATTTAAA | 0.241 | 0.293 |  |
| ACAGACGAAGGAGCCGCAAAGAAGTTATTAAGGGATAAATAATCCCTCAACATAAATATCTCTCACTTATTTAAA | 0.251 |  |  |
| ACAGACGAAGGAGCCGCAAAGAAGTTATTAAGGGATAAATAATCCCTCAAGATAAATATCTCTCACTTATTTAAA | 0.29 | 0.18 |  |
| ACAGACGAAGGAGCCGCAAAGAAGTTATTAAGGGATAAATAATCCCTCAATAAAAATATCTCTCACTTATTTAAA |  |  | 0.148 |
| ACAGACGAAGGAGCCGCAAAGAAGTTATTAAGGGATAAATAATCCCTCAATATAAAAATCTCTCACTTATTTAAA | 0.943 |  |  |
| ACAGACGAAGGAGCCGCAAAGAAGTTATTAAGGGATAAATAATCCCTCAATATAAAGATCTCTCACTTATTTAAA | 0.505 | 0.482 |  |
| ACAGACGAAGGAGCCGCAAAGAAGTTATTAAGGGATAAATAATCCCTCAATATAAATAACTCTCACTTATTTAAA | 0.823 |  |  |
| ACAGACGAAGGAGCCGCAAAGAAGTTATTAAGGGATAAATAATCCCTCAATATAAATAGCTCTCACTTATTTAAA | 0.553 |  |  |
| ACAGACGAAGGAGCCGCAAAGAAGTTATTAAGGGATAAATAATCCCTCAATATAAATATCTCTCACTTATTTAAA | 0.872 | 0.898 | 0.954 |
| ACAGACGAAGGAGCCGCAAAGAAGTTATTAAGGGATAAATAATCCCTCAATATAAATCTCTCTCACTTATTTAAA | 0.65 | 0.559 |  |

| Sequence | cleaved RNA product abundance [1] | cleaved RNA product abundance [2] | cleaved RNA product abundance [3] |
| --- | --- | --- | --- |
| ACAGACGAAGGAGCCGCAAAGAAGTTATTAAGGGATAAATAATCCCTCAATATAAATGTCTCTCACTTATTTAAA | 0.539 | 0.46 |  |
| ACAGACGAAGGAGCCGCAAAGAAGTTATTAAGGGATAAATAATCCCTCAATATAAATTTCTCTCACTTATTTAAA | 0.368 |  |  |
| ACAGACGAAGGAGCCGCAAAGAAGTTATTAAGGGATAAATAATCCCTCAATATAACTATCTCTCACTTATTTAAA | 0.156 |  |  |
| ACAGACGAAGGAGCCGCAAAGAAGTTATTAAGGGATAAATAATCCCTCAATATAATTATCTCTCACTTATTTAAA | 0.532 | 0.507 |  |
| ACAGACGAAGGAGCCGCAAAGAAGTTATTAAGGGATAAATAATCCCTCAATATACATATCTCTCACTTATTTAAA | 0.699 |  |  |
| ACAGACGAAGGAGCCGCAAAGAAGTTATTAAGGGATAAATAATCCCTCAATATAGATATCTCTCACTTATTTAAA | 1.02 | 0.638 |  |
| ACAGACGAAGGAGCCGCAAAGAAGTTATTAAGGGATAAATAATCCCTCAATATATATATCTCTCACTTATTTAAA | 0.916 |  |  |
| ACAGACGAAGGAGCCGCAAAGAAGTTATTAAGGGATAAATAATCCCTCAATTTAAATATCTCTCACTTATTTAAA | 0.167 |  |  |
| ACAGACGAAGGAGCCGCAAAGAAGTTATTAAGGGATAAATAATCCCTCACTATAAATATCTCTCACTTATTTAAA | 0.193 | 0.247 |  |
| ACAGACGAAGGAGCCGCAAAGAAGTTATTAAGGGATAAATAATCCCTCAGTATAAATATCTCTCACTTATTTAAA | 0.242 |  |  |
| ACAGACGAAGGAGCCGCAAAGAAGTTATTAAGGGATAAATAATCCCTCATTATAAATATCTCTCACTTATTTAAA | 0.267 |  |  |
| ACAGACGAAGGAGCCGCAAAGAAGTTATTAAGGGATAAATAATCCCTCCATATAAATATCTCTCACTTATTTAAA | 0.234 | 0.26 |  |
| ACAGACGAAGGAGCCGCAAAGAAGTTATTAAGGGATAAATAATCCCTCGATATAAATATCTCTCACTTATTTAAA | 0.433 |  |  |
| ACAGACGAAGGAGCCGCAAAGAAGTTATTAAGGGATAAATAATCCCTCTATATAAATATCTCTCACTTATTTAAA | 0.326 | 0.396 |  |
| ACAGACGAAGGAGCCGCAAAGAAGTTATTAAGGGATAAATAATCCCTGAATATAAATATCTCTCACTTATTTAAA | 0.734 |  |  |
| ACAGACGAAGGAGCCGCAAAGAAGTTATTAAGGGATAAATAATCCCTTAATATAAATATCTCTCACTTATTTAAA | 0.48 | 0.71 |  |
| ACAGACGAAGGAGCCGCAAAGAAGTTATTAAGGGATAAATAATCCGTCAATATAAATATCTCTCACTTATTTAAA | 0.166 | 0.132 |  |
| ACAGACGAAGGAGCCGCAAAGAAGTTATTAAGGGATAAATAATCCTTCAATATAAATATCTCTCACTTATTTAAA | 0.338 | 0.303 |  |
| ACAGACGAAGGAGCCGCAAAGAAGTTATTAAGGGATAAATAATCGCTCAATATAAATATCTCTCACTTATTTAAA | 0.0974 |  |  |
